Assay results as given in patent US20040009486A1, “Compositions and methods utilizing DNA polymerases” (priority 1999, published 2004).

Key:
primer:template = test: Fidelity screen with rhodamine labeled non-complementary ddNTP; type: biochemical; conditions: R110-labeled incorrect ddNTP
Experimental: Reactions (10 μl) contained 1 unit of enzyme in 1× reaction buffer, 15 nM primer template, 25 nM of unlabeled complementary ddNTP, and 25, 100, 500, or 1000 nM of rhodamine labeled non-complementary ddNTP in four separate reactions. The reactions were incubated in a Perkin-Elmer 9600 for 25 cycles as follows: 96° C. for 10 s, 50° C. for 5 s, and 60° C. for 30 s. The reactions were then quenched with ice-cold 0.2 M EDTA (final concentration) and the products were purified from unincorporated rhodamine labeled ddNTPs and analyzed as described above.
Fidelity was determined as the tendency of a DNA polymerase to incorporate the correct nucleotide in the presence of increasing amounts of a non-complementary nucleotide. These assays employed constant amounts of primer:template, an unlabeled complementary ddNTP and DNA polymerase, and various concentrations of a rhodamine-labeled non-complementary ddNTP, as described in the Experimental Protocol. The amount of misextended primers is plotted against the ratio of rhodamine-labeled incorrect ddNTP/unlabeled correct ddNTP (FIG. 18 panels A and B). We performed similar assays for all possible mispairs (Table IX).
To address these concerns, the insertion fidelity of the JDF-3 P410L/A485T and Taq F667Y mutants was compared. In the first set of fidelity assays, a constant amount of primer:template, an unlabeled complementary ddNTP, and increasing concentrations of R110-labeled non-complementary ddNTP was used (Materials and Methods). […] The amount of misextended primers was determined and plotted against the ratio of R110-labeled incorrect ddNTP/unlabeled correct ddNTP (FIG. 27, panels A and B). Similar assays for all 12 possible mispairs was performed (ddG:dT, ddT:dG, ddT:dC, ddC:dT, ddC:dA, ddA:dC, ddA:dG, ddG:dA, ddT:dT, ddC:dC, ddA:dA, ddG:dG). […] The other mispairs are formed less frequently, and at similar rates for the JDF-3 P410L/A485T and Taq F667Y mutants (data not shown).
Fidelity assays using labeled ddNTPs (10 μl) contained 1 unit DNA polymerase in 1× reaction buffer, 15 nM primer: template, 25 nM of unlabeled complementary ddNTP, and 25, 100, 500, or 1000 nM of rhodamine-labeled non-complementary ddNTP in four separate reactions. The reactions were incubated in a Perkin-Elmer 9600 for 25 cycles as follows: 96° C. for 10 s, 50° C. for 5 s, and 60° C. for 30 s. The reactions were quenched and analyzed as above.

[1] = cited from earlier work
[2] = Gardner and Jack, 1999; cited from earlier work
Activated DNA = test: Polymerase specific activity on activated DNA (Table IV); type: biochemical
Experimental: (§1) Recombinant JDF-3 DNA polymerase was purified as described below (see “Purification of JDF-3” (method 1)). The biochemical properties of JDF-3 DNA polymerase have been compared to those of other commercially available archaeal DNA polymerases. […] JDF-3 DNA polymerase was therefore chosen for development of a DNA sequencing enzyme.
DNA polymerase activity was measured using purified JDF-3 polymerase mutants or heat-treated bacterial extracts prepared from various mutant clones. DNA polymerase activity was measured by monitoring the incorporation of ^3H-TTP into activated calf thymus DNA. A typical DNA polymerase reaction cocktail contained:
Incorporation was measured by adding 1 μl of polymerase samples to 10 μl aliquots of polymerase cocktail. DNA polymerase samples were diluted in a suitable storage buffer (e.g., 25 mM Tris-HCl (pH 7.5), 100 mM KCl, 0.1 mM EDTA, 1 mM DTT, 0.1% (v/v) Tween 20, 0.1% (v/v) Igepal 630, 10 μg/ml BSA, and 50% (v/v) glycerol). Polymerization reactions were conducted for 30 minutes at 72° C. Extension reactions were quenched on ice, and then 5 μl aliquots were spotted immediately onto DE81 ion-exchange filters (2.3 cm; Whatman #3658323). Unincorporated [^3H]TTP was removed by 6 washes with 2×SCC (0.3M NaCl, 30 mM sodium citrate, pH 7.0), followed by a brief wash with 100% ethanol. Incorporated radioactivity was measured by scintillation counting. […]

[3] = Polymerase constant for dNTP (Table IV); type: biochemical; conditions: head names no parameter
Text: as §1

[4] = 3′ to 5′ exonuclease activity, Kong et al. method, bacterial lysates; type: biochemical
Experimental: To analyze JDF-3 mutant proteins, the DNA sequence encoding JDF-3 DNA polymerase was PCR amplified using primers GGGAAACATATGATCCTTGACGTTGATTAC (where NdeI site in bold and start codon underlined) and GGGAAAGGATCCTCACTTCTTCTTCCCCTTC (where BamHI site shown in bold type). The PCR products were digested, purified, and ligated into a high expression level vector using standard methods. Plasmid clones were transformed into BL21(DE3). Recombinant bacterial clones were grown using standard procedures and JDF-3 polymerase mutants were expressed in the absence of induction. The exonuclease and polymerase activities of recombinant clones were assayed using bacterial lysates. Typically, crude extracts were heated at 70° C. for 15-30 minutes and then centrifuged to obtain a cleared lysate.
There are several methods of measuring 3′ to 5′ exonuclease activity known in the art, including that of Kong et al. (Kong et al., 1993, J. Biol. Chem. 268: 1965) and that of Southworth et al. (Southworth et al., 1996, Proc. Natl. Acad. Sci. U.S.A. 93: 5281), the full contents of both of which are hereby incorporated by reference. The exonuclease activity of wild type and active mutant polymerases as measured by the Kong et al. method were as follows: […]

DNA = test: Polymerase constant for DNA (Table IV); type: biochemical; conditions: head names no parameter
Text: as §1

Primed M13 = test: Polymerase specific activity on primed M13 (Table IV); type: biochemical
Text: as §1

[5] = Reha-Krantz et al., 1993; cited from earlier work

AmpliTaq FS: Taq F667Y mutant DNA polymerase (ABI / Perkin Elmer)
ddG:dT mispair formation frequency, higher than JDF-3 P410L/A485T (primer:template): 20 fold | ddT:dC mispair formation frequency, higher than JDF-3 P410L/A485T (primer:template): 3 fold

Y412F: VENT DNA polymerase site-directed mutant Y412F (Gardner and Jack, 1999)
analog incorporation ([1]; Gardner and Jack, 1999): no change in analog incorporation

Y412V: VENT DNA polymerase site-directed mutant Y412V (Gardner and Jack, 1999)
dideoxynucleotide incorporation relative to unmutated / wild type enzyme ([1]; literature values): 2 fold | increase in incorporation of ribonucleotide ATP [2]: 200 fold

B1: JDF-3: Recombinant wild-type Thermococcus species JDF-3 Family B DNA polymerase (SEQ ID NO: 2) (protein)
chain: MILDVDYITENGKPVIRVFKKENGEFRIEYDREFEPYFYALLRDDSAIEEIKKITAERHGRVVKVKRAEKVKKKFLGRSVEVWVLYFTHPQDVPAIRDKIRKHPAVIDIYEYDIPFAKRYLIDKGLIPMEGEEELKLMSFDIETLYHEGEEFGTGPILMISYADESEARVITWKKIDLPYVEVVSTEKEMIKRFLRVVKEKDPDVLITYNGDNFDFAYLKKRCEKLGVSFTLGRDGSEPKIQRMGDRFAVEVKGRVHFDLYPVIRRTINLPTYTLEAVYEAVFGKPKEKVYAEEIATAWETGEGLERVARYSMEDARVTYELGREFFPMEAQLSRLIGQGLWDVSRSSTGNLVEWFLLRKAYERNELAPNKPDERELARRRGGYAGGYVKEPERGLWDNIVYLDFRSLYPSIIITHNVSPDTLNREGCRSYDVAPEVGHKFCKDFPGFIPSLLGNLLEERQKIKRKMKATLDPLEKNLLDYRQRAIKILANSYYGYYGYARARWYCRECAESVTAWGREYIEMVIRELEEKFGFKVLYADTDGLHATIPGADAETVKKKAMEFLNYINPKLPGLLELEYEGFYVRGFFVTKKKYAVIDEEGKITTRGLEIVRRDWSEIAKETQARVLEAILRHGDVEEAVRIVREVTEKLSKYEVPPEKLVIHEQITRELKDYKATGPHVAIAKRLAARGVKIRPGTVISYIVLKGSGRIGDRAIPFDEFDPTKHKYDADYYIENQVLPAVERILRAFGYRKEDLRYQKTRQVGLGAWLKPKGKKK
modifications: Thermococcus sp. JDF-3
Specific Activity (U/mg) × 10^4 Activated DNA (Activated DNA): 1.2 ± .07 (U/mg) × 10^4 | dNTP (μM each) [3]: 16 ± 2 μM each | Exo activity (U/mg) [4]: 915 U/mg | DNA (DNA): 2.0 nM | Specific Activity (U/mg) × 10^4 Primed M13 (Primed M13): 5.2 (U/mg) × 10^4

B2: Pfu: Family B DNA polymerase from Pyrococcus furiosus (protein, UniProt P61875 1-775, looked up)
DNA polymerase: MILDVDYITEEGKPVIRLFKKENGKFKIEHDRTFRPYIYALLRDDSKIEEVKKITGERHGKIVRIVDVEKVEKKFLGKPITVWKLYLEHPQDVPTIREKVREHPAVVDIFEYDIPFAKRYLIDKGLIPMEGEEELKILAFDIETLYHEGEEFGKGPIIMISYADENEAKVITWKNIDLPYVEVVSSEREMIKRFLRIIREKDPDIIVTYNGDSFDFPYLAKRAEKLGIKLTIGRDGSEPKMQRIGDMTAVEVKGRIHFDLYHVITRTINLPTYTLEAVYEAIFGKPKEKVYADEIAKAWESGENLERVAKYSMEDAKATYELGKEFLPMEIQLSRLVGQPLWDVSRSSTGNLVEWFLLRKAYERNEVAPNKPSEEEYQRRLRESYTGGFVKEPEKGLWENIVYLDFRALYPSIIITHNVSPDTLNLEGCKNYDIAPQVGHKFCKDIPGFIPSLLGHLLEERQKIKTKMKETQDPIEKILLDYRQKAIKLLANSFYGYYGYAKARWYCKECAESVTAWGRKYIELVWKELEEKFGFKVLYIDTDGLYATIPGGESEEIKKKALEFVKYINSKLPGLLELEYEGFYKRGFFVTKKRYAVIDEEGKVITRGLEIVRRDWSEIAKETQARVLETILKHGDVEEAVRIVKEVIQKLANYEIPPEKLAIYEQITRPLHEYKAIGPHVAVAKKLAAKGVKIKPGMVIGYIVLRGDGPISNRAILAEEYDPKKHKYDAEYYIENQVLPAVLRILEGFGYRKEDLRYQKTRQVGLTSWLNIKKS
dNTP (μM each) [3]: 16 ± 2 μM each | DNA (DNA): 0.7 nM | Specific Activity (U/mg) × 10^4 Primed M13 (Primed M13): 2.0 ± .02 (U/mg) × 10^4

B3: L412M: L412M bacteriophage T4 DNA polymerase mutant (Reha-Krantz et al., 1993) (protein, UniProt P04415 1-898, looked up, variant L412M)
DNA-directed DNA polymerase: MKEFYISIETVGNNIVERYIDENGKERTREVEYLPTMFRHCKEESKYKDIYGKNCAPQKFPSMKDARDWMKRMEDIGLEALGMNDFKLAYISDTYGSEIVYDRKFVRVANCDIEVTGDKFPDPMKAEYEIDAITHYDSIDDRFYVFDLLNSMYGSVSKWDAKLAAKLDCEGGDEVPQEILDRVIYMPFDNERDMLMEYINLWEQKRPAIFTGWNIEGFDVPYIMNRVKMILGERSMKRFSPIGRVKSKLIQNMYGSKEIYSIDGVSILDYLDLYKKFAFTNLPSFSLESVAQHETKKGKLPYDGPINKLRETNHQRYISYNIIDVESVQAIDKIRGFIDLVLSMSYYAKMPFSGVMSPIKTWDAIIFNSLKGEHKVIPQQGSHVKQSFPGAFVFEPKPIARRYIMSFDLTSMYPSIIRQVNISPETIRGQFKVHPIHEYIAGTAPKPSDEYSCSPNGWMYDKHQEGIIPKEIAKVFFQRKDWKKKMFAEEMNAEAIKKIIMKGAGSCSTKPEVERYVKFSDDFLNELSNYTESVLNSLIEECEKAATLANTNQLNRKILINSLYGALGNIHFRYYDLRNATAITIFGQVGIQWIARKINEYLNKVCGTNDEDFIAAGDTDSVYVCVDKVIEKVGLDRFKEQNDLVEFMNQFGKKKMEPMIDVAYRELCDYMNNREHLMHMDREAISCPPLGSKGVGGFWKAKKRYALNVYDMEDKRFAEPHLKIMGMETQQSSTPKAVQEALEESIRRILQEGEESVQEYYKNFEKEYRQLDYKVIAEVKTANDIAKYDDKGWPGFKCPFHIRGVLTYRRAVSGLGVAPILDGNKVMVLPLREGNPFGDKCIAWPSGTELPKEIRSDVLSWIDHSTLFQKSFVKPLAGMCESAGMDYEEKASLDFLFG
ddGTP needed for inhibition, less than wild-type polymerase [5]: 50 fold
